From patent US20200199207A1 (MABYLON, published 2020)

Columns and labels:
Ara h 2 [1] = target: T1, Ara h 2 (peanut, UniProt Q6PSU2 22-172); experiment: competition ELISA on coated Ara h 2; competitor: Patient E serum IgE
T1 construct: also called full length Ara h 2
T1 sequence (looked up): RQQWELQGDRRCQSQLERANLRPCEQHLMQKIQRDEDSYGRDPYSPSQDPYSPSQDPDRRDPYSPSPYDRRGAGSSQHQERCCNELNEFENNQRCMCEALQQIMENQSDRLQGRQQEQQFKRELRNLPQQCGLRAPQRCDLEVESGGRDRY
Method: (§1) Microplates were coated with […] of Ara h 1, Ara h 2, Ara h 3, or Ara h 6, overnight at 4° C. After washing with PBS-Tween 0.05% and blocking with 2% BSA, plates were incubated with increasing concentrations of peanut human IgG antibodies for 1 h at room temperature. Subsequently, plates were incubated with different sera dilutions or different concentrations of murine antibody (as positive control). IgE levels were detected using anti-human HRP-conjugated Fc-epsilon-specific secondary antibody (Abcam, Cambridge, UK) followed by addition of TMB solution (TMB, Sigma, Buchs, Switzerland). Binding of murine antibodies was detected using goat anti-mouse IgG (H+L)-HRP (Jackson ImmunoResearch, West Grove, Pa., USA).

Ara h 2 [2] = target: T1, Ara h 2; experiment: competition ELISA on coated Ara h 2; competitor: Patient C serum IgE
Method: as §1

Binder | % inhibition of IgE binding (Ara h 2 [1]) [%] | % inhibition of IgE binding (Ara h 2 [2]) [%]
h32B10 (antibody, V domains shown, Recombinant human IgG; also called hMAb 32B10) VH: QVQLVQSGAEVKKPGASVKVSCRASGYIFRNFDINWVRQATGQGLEWMGWMSPKSGDTGYAQKFQGRVTMTRDTSINTAYMELSSLTSEDSAVYYCARGVDGTNWGQGTRVTVSS VL: DIVMTQSPDSLGVSLGERATISCKSSQSILDNSNNKNFIAWFQQKPGQPPKLLIYWASARESGVPDRFSGSGSGTEFTLTINSLQAEDVAVYYCYQYYSTPHTFGQGTKLDLR | 29.3 | 21
h4B2 (antibody, V domains shown, Recombinant human IgG; also called hMAb 4B2) VH: QVQLQEAGPRLVKPSQTLSVTCTVSGASITIGGYYWSWIRQHPGKGLEWMGYIYSNGRTYYNPSLKSRIAMSIDTSKNQFSLKLTSVTAADTAIYFCAREAWETPLWGQGTLITVSS VL: DIQMTQSPSSLSASVGDRVTITCQANQDIVNSLNWFQHKPGTAPKVLIYDASKLETGVPSRFSGSGSGTHFTFTISGLQPEDFATYFCQQYENLPHTFGQGTKLEIR | 21.9 | 13.3
h12G10 (antibody, human IgG1, V domains shown, Recombinant human IgG; also called hMAb 12G10) VH: EVQLLESGGRLLRPGGSLSLSCVASGFYFGDFGMSWVRQVPGKGLEWVSGIDWSGRSTGYVDSMKGRLTISRDNDKSSLYLQMNDLRGEDTAVYYCARVGRLCSGDSCDSMGAFDLWGQGTMVTVSS VL: DIQLTQSPSTLSASIGDSVTITCRASQNIDNWLAWYQQKPGKAPRLLIYKASSLGSGVSSKFRGSGFGTEFTLTITSLQPDDFATYYCQKSNGYSRTFGQGTKVDIK | 36.2 | 53.8
h37D5 (antibody, V domains shown, Recombinant human IgG; also called hMAb 37D5) VH: EEQLVESGGRLLRPGESLSLSCAAVGFNFGDFGMAWVRQPPGKGLEWVAGINWSGHSTGFVDSMKGRLTISRDSAKSSLFLQMNSLRGEDTAVYYCARVGRLCSGDICDSMGAFDLWGQGTMVTVSS VL: DIQMTQSPSTLSASIGDRVTITCRASQTIDNWLAWYQQRPGKAPKLLIYQASSLQSGVSSRFRGSGSGTEFTLTITSLQPDDFATYYCQKSNGYSRTFGQGTKVEIK | 29.3 | ~55.1
